Residue numbers refer to the chain shown, from its start. Names and notes keep the numbering of the source. Values joined by “and” are separate entries in the source; they are usually repeats but may differ in a detail not shown here. Equal values may be shown once.
Experiments:
[1] = biological target: Abi-P2 of E. coli prophage EC30 (residues 1–541) (E. coli prophage EC30 (Enterobacteria phage P2-EC30)); assay: crystal structure; Abi-P2 (1–541) 6 mg/ml, sitting drop at 18°C and 4°C; space group P2(1); 3.1 Å
[2] = biological target: Abi-P2 of E. coli prophage EC30 (residues 1–541) (E. coli prophage EC30 (Enterobacteria phage P2-EC30)); assay: SEC-MALS; Superdex 200 Increase 10/300 GL, 100 μl samples, 25 mM Tris pH 7.0, 400 mM NaCl, 2% glycerol, 1 mM DTT
[3] = biological target: Abi-P2 of E. coli prophage EC30 (residues 1–541) (E. coli prophage EC30 (Enterobacteria phage P2-EC30)); assay: cryo-EM structure; Abi-P2 1 mg/ml in 20 mM Tris pH 7.0, 500 mM NaCl, 1 mM DTT; tilted dataset, C3 symmetry, 3.9 Å low-quality reconstruction, not deposited
[4] = biological target: the molecule itself; assay: cryo-EM structure; Ll-AbiK 1.0 mg/ml on Quantifoil R1.2/1.3 grid, single-particle reconstruction with D3 symmetry, 2.3 Å
[5] = biological target: the molecule itself; assay: cryo-EM structure; Ll-AbiK Y44F 1.74 mg/ml on C-flat-2/1 grid, 2D classification; only hexamer classes used for the reconstruction (D3 symmetry, 2.7 Å)

Abi-P2 of E. coli prophage EC30 (residues 1–541) (enzyme)
stoichiometry N [1]: 3
stoichiometry N [2]: 3
stoichiometry N [3]: 3

B1: Lactococcus lactis AbiK, wild type (Ll-AbiK–DNA adduct) (enzyme)
chain: MKKEFTELYDFIFDPIFLVRYGYYDRSIKNKKMNTAKVELDNEYGKSDSFYFKVFNMESFADYLRSHDLKTHFNGKKPLSTDPVYFNIPKNIEARRQYKMPNLYSYMALNYYICDNKKEFIEVFIDNKFSTSKFFNQLNFDYPKTQEITQTLLYGGIKKLHLDLSNFYHTLYTHSIPWMIDGKSASKQNRKKGFSNTLDTLITACQYDETHGIPTGNLLSRIITELYMCHFDKQMEYKKFVYSRYVDDFIFPFTFENEKQEFLNEFNLICRENNLIINDNKTKVDNFPFVDKSSKSDIFSFFENITSTNSNDKWIKEISNFIDYCVNEEHLGNKGAIKCIFPVITNTLKQKKVDTKNIDNIFSKRNMVTNFNVFEKILDLSLKDSRLTNKFLTFFENINEFGFSSLSASNIVKKYFSNNSKGLKEKIDHYRKNNFNQELYQILLYMVVFEIDDLLNQEELLNLIDLNIDDYSLILGTILYLKNSSYKLEKLLKKIDQLFINTHANYDVKTSRMAEKLWLFRYFFYFLNCKNIFSQKEINSYCQSQNYNSGQNGYQTELNWNYIKGQGKDLRANNFFNELIVKEVWLISCGENEDFKYLN
modifications: DNA (9–17 nt by mass spectrometry) covalently attached by its 5′ end to the hydroxyl group of Tyr44
notes: AbiK of Lactococcus lactis, encoded on plasmid pSRQ800; synthetic gene; theoretical MW of the monomer 71.5 kDa; it says that the whole length of the polypeptide chain is visible in the model except residues 189–190; The short DNA was synthesised in the bacterial cell and co-purified; source: E. coli BL21 Star (DE3), purified (HisTrap, SUMO protease, HisTrap flow-through, Superdex 200); not shown: …
stoichiometry N [4]: 6

B2: Ll-AbiK Y44F (enzyme, Lactococcus lactis)
chain: B1 chain with Y44F
notes: AbiK of Lactococcus lactis with the protein-priming tyrosine 44 replaced by phenylalanine; Unable to carry out protein-primed DNA synthesis, so it carries no DNA; Purification of the variants is described only in general terms with the wild type; also called Y44F variant; source: E. coli BL21 Star (DE3), purified; not shown: His6-SUMO, N-terminal, cleaved
stoichiometry N [5]: 3 and 6

— PMC9508834, “Mechanism of protein-primed template-independent DNA synthesis by Abi polymerases” (Nucleic Acids Research, 2022)
